Target: TNFR
Test: cell-based or functional assay

EC50, stimulation of HEK-Blue TNFα cells (SEAP reporter): 3.1 pM
B1: cynomolgus TNFα (ligand)
chain: VRSSSRTPSDKPVAHVVANPQAEGQLQWLNRRANALVANGVELTDNQLVVPSEGLYLIYSQVLFKGQGCPSNHVLLTHTISRIAVSYQTKVNLLSAIKSPCQRETPEGAEAKPWYEPIYLGGVFQLEKGDRLSAEINLPDYLDFAESGQVYFGIIAL
modifications: biotinylated in the binding ELISA (sites not given)

Source: US20250154242A1 (ADAFRE BIOSCIENCES, published 2025)
